Test [1] has as its target Herceptin antibody labelled with biotin. Nature of the test: mass photometry; first 500 s after 25 mM free biotin, compared with the PBS control.
For test [2] the target is unchanged. Nature of the test: mass photometry; consecutive measurement with 25 mM free biotin, compared with the PBS control.
For test [3] the target is unchanged. Nature of the test: mass photometry; control with PBS as release agent, streptavidin-coated coverslip loaded with Herc-B.
Test [4] has the same target. Nature of the test: mass photometry; first 500 s after 25 mM free biotin, release of Herc-B from immobilised streptavidin.
For test [5] the target is unchanged. Nature of the test: mass photometry; consecutive measurement with 25 mM free biotin, release of Herc-B from immobilised streptavidin.

“streptavidin (from UniProt P22629 37-163)”: the results for the Percentage increase to control in test [1] and in test [2] were 90.5% and 79.8%, respectively. Moreover, the Difference UB - B in test [3] was 17 counts; in test [4] it was 179 counts; in test [5], 84 counts. In addition, the Unbinding (UB) events, MW 76 to 273 kDa in test [3] turned out to be 161 counts; in test [4], 460 counts; in test [5], 565 counts.
